Measured values: PMC9604439, “Mutation Hotspot for Changing the Substrate Specificity of β-N-Acetylhexosaminidase: A Library of GlcNAcases” (International Journal of Molecular Sciences, 2022)
Substitutions are numbered along the chain they refer to. Numbers in names are those of the source.

B1: TfHex (β-N-acetylhexosaminidase from Talaromyces flavus) (Talaromyces flavus; E332A) (protein)
chain: VAVNPLPAPRSITWGTSGPISVPHNVDVKLPKNAIINDAWERAWTSIKQLRWVPQATEAPISSYEPFPTVAPTSASTASSTPLPSSSAAAVAARSQKRGHQKGSHEKRGHSQSTLRTVTVTVSDLNADLQAEVDESYTLVLDSGSSTLAITANTTWGALHAFTTLQQLVIYQDNSLIIEQPVHIEDSPLYPWRGVMIDTGRNFITVPKIKEQIDGMALSKLNILHWHLDDSQSWPVHMDTYPQMTNDAYSPWQTYSHEDIKDIIEYARARAVRVVPEVDMPGHSAAGWQQVDPSIVACAHSWWSNDNWPYHTAVAPTPGQLDPLNNKTYGVVEKVYNELSGIFTDDFFHVGGDELQTGCYNFSTYVSDYLAADPSRTYNDVTQYWVDHAFPIFKKIQNRKLVIWEDLIINNPHAPNVSTENLLVQSWNNGLTNINNLTNLGYDVLVSSSDFMYLDCGYGGFVTNDPRYDVMVNPDAVDGLANFNWGGNGGSWCAPYKTWQRIYDYDFTTNLTDAQAAHVKGAVAPLWSEQVDDTVISGKMWPRAAALAELVWSGNKDPKTGDKRTTYMTQRILNFREYLVANGVQAAPLVPKYCLQHPHSCDLYYDQTAVV
notes: secreted via alpha-factor, pPICZαA, Pichia pastoris KM71H, cation-exchange purified; tetramer of two catalytic subunits and two non-covalently linked propeptides
B2: TfHex (β-N-acetylhexosaminidase from Talaromyces flavus) (Talaromyces flavus; E332G) (protein)
chain: B1 chain with A315G
notes: as for B1
B3: TfHex (β-N-acetylhexosaminidase from Talaromyces flavus) (Talaromyces flavus; E332T) (protein)
chain: B1 chain with A315T
notes: as for B1
B4: TfHex (β-N-acetylhexosaminidase from Talaromyces flavus) (Talaromyces flavus; E332N) (protein)
chain: B1 chain with A315N
notes: as for B1

Each protein was assayed on CC(=O)N[C@H]1[C@H](Oc2ccc([N+](=O)[O-])cc2)O[C@H](CO)[C@@H](O)[C@@H]1O (assay: discontinuous p-nitrophenolate release assay, non-linear regression). Settings: McIlvaine buffer pH 5.0, 25 °C.
Format: biochemical, Talaromyces flavus

Point of comparison: B3, Km 800 ± 100 µM. Against it:
- B1 — within error, 880 ± 70 µM
- B2 — 2.2-fold higher, 1800 ± 200 µM
- B4 — 1.5-fold higher, 1220 ± 70 µM

Point of comparison: B2, kcat 51 ± 2 s⁻¹. Against it:
- B1 — 1.7-fold lower, 30 ± 1 s⁻¹
- B3 — 3.8-fold lower, 13.3 ± 0.4 s⁻¹
- B4 — 2.3-fold lower, 22.5 ± 0.4 s⁻¹
